The target in one experiment is B′γ1 regulatory subunit (UniProt Q13362-2 1-449). The experiment can be described thus: ITC; 1 mM peptide titrated to 20–50 μM B′γ1; 20 mM HEPES pH 7.5, 200 mM NaCl; VP-ITC. The conditions noted are these: both partners purified. (In ITC the heat of successive injections is recorded.)
The next experiment deals with T1, B′ε regulatory subunit (UniProt Q16537 1-467).
T1 construct: PP2A regulatory subunit B′ε, full-length; prey in a GST pull-down, so probably with the GST tag cleaved by TEV; source: E. coli DH5α, purified (GS4B, anion exchange, gel filtration)
T1 sequence (Q16537 whole entry): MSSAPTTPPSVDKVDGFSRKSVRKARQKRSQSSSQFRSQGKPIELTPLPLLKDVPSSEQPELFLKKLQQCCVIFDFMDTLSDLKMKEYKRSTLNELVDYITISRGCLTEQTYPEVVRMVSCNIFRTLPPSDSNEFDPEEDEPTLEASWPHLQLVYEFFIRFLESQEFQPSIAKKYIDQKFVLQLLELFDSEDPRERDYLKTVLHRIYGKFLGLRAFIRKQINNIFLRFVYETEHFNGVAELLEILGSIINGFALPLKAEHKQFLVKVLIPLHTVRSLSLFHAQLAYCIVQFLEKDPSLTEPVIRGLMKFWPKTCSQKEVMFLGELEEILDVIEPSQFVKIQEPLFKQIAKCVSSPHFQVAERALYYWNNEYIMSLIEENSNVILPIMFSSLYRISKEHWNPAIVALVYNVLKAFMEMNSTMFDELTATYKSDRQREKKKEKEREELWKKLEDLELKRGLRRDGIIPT
Kind of experiment: pull-down; about 10 μg GST-tagged B′-binding motif or GST-pCyk4 on glutathione (GS4B) resin; 10 μg holoenzyme, B′ε or PR70 added; 25 mM Tris pH 8.0, 150 mM NaCl, 3 mM DTT; SDS-PAGE, Coomassie. As to conditions: both partners purified.

B1: Cyk4 S149E peptide (synthetic, phosphomimetic) (peptide)
chain: LSTIDEEGS
A word on the Kd: it is the concentration at which binding is half-saturated. A high value points to lower affinity. Regarding B1, in the experiment with B′γ1 regulatory subunit, binding was characterised by a dissociation constant (Kd) of 1590 nM and the “fold stronger binding than the native Cyk4 peptide” value stood at 15 fold.

B2: GST-pCyk4 (1–177), Plk1-phosphorylated (domain or fragment, human, UniProt Q9H0H5 1-177, looked up)
chain: MDTMMLNVRNLFEQLVRRVEILSEGNEVQFIQLAKDFEDFRKKWQRTDHELGKYKDLLMKAETERSALDVKLKHARNQVDVEIKRRQRAEADCEKLERQIQLIREMLMCDTSGSIQLSEEQKSALAFLNRGQPSSSNAGNKRLSTIDESGSILSDISFDKTDESLDWDSSLVKTFKL
modifications: phosphorylated by Plk1: mono- to pentakis-phosphorylated forms; sites of the tetrakis form S149, S157, S164 and S170
notes: also called GST-Cyk4; source: phosphorylated by Plk1; not shown: GST, N-terminal, kept
On to B2, for which the binding result with B′ε regulatory subunit is given as “binds”.

For the origin of these results see paper PMC5586252, “PP2A-B′ holoenzyme substrate recognition, regulation and role in cytokinesis” (Cell Discovery, 2017).
